Measurements reported in article PMC6446838.

Columns and labels:
[1] = target: full-length KIF5B-GFP with C-terminal Strep-tag (human) (UniProt P33176)
[2] = target: K560-GFP with C-terminal Strep-tag, purified (human) (UniProt P33176)
Sequence of K560-GFP with C-terminal Strep-tag, purified (human) (P33176 1-560): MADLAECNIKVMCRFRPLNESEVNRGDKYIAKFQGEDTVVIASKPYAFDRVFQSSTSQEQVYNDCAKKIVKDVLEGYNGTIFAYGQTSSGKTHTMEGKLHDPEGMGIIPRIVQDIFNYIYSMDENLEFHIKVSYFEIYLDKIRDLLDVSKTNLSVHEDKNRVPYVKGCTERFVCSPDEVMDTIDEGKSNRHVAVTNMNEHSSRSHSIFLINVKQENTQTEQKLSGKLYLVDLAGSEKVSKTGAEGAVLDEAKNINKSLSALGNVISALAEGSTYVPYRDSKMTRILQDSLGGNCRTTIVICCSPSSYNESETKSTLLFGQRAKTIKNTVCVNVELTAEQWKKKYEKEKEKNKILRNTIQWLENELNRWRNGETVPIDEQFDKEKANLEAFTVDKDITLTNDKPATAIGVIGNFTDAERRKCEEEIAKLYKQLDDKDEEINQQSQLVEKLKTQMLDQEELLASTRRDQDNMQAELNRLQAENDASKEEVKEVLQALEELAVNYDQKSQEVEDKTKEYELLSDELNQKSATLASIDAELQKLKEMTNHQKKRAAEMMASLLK

Sequence of Alexa Fluor 647–labeled SNAP-tag-MAP7, full length (Q14244 whole entry): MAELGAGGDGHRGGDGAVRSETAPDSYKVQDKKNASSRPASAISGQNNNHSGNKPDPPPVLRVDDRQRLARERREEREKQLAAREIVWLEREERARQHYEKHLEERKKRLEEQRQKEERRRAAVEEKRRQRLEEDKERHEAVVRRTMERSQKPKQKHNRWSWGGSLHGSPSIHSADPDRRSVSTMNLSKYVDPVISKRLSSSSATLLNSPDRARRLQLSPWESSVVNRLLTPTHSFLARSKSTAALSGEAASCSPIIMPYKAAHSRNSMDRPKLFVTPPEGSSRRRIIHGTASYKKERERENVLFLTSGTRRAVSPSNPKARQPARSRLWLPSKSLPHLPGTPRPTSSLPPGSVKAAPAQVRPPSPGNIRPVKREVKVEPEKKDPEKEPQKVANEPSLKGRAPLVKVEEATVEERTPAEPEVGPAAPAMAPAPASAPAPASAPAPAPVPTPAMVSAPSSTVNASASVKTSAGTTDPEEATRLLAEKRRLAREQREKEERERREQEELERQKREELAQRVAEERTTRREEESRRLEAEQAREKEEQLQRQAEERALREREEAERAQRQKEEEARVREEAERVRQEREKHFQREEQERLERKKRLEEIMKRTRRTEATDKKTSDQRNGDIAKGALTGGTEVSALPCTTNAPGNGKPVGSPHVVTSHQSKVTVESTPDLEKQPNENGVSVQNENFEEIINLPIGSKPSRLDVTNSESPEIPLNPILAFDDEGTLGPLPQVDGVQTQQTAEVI
Sequence of full-length KIF5B-GFP with C-terminal Strep-tag (human) (P33176 whole entry): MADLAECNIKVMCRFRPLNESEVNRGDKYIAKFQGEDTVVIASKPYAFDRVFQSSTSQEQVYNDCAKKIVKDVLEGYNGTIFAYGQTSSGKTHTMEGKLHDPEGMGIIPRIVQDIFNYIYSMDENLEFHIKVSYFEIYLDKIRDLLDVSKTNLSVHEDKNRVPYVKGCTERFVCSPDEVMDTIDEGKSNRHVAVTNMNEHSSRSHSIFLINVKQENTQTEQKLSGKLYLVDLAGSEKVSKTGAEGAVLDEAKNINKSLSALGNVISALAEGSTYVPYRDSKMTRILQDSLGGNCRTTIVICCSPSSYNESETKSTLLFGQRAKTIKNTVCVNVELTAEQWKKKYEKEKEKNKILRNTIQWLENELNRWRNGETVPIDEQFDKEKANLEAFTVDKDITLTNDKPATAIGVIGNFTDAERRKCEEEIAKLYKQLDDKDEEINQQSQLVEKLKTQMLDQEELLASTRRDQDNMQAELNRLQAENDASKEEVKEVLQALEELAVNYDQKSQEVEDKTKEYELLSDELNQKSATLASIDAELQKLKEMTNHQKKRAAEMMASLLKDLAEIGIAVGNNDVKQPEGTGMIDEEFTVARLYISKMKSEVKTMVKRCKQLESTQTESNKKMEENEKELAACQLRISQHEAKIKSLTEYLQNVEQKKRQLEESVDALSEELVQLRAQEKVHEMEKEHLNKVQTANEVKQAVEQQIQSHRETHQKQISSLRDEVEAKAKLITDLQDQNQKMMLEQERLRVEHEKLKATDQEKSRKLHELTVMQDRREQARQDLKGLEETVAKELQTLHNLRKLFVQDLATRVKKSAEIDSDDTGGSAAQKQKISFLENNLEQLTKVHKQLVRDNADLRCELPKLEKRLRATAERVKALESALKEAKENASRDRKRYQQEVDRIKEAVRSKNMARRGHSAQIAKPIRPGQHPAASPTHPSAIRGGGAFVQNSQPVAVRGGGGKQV

## Alexa Fluor 647–labeled SNAP-tag-MAP7, full length (from UniProt Q14244 1-749) (natural protein)
[1]
  events of full-length KIF5B-GFP on dynamic MTs in vitro (short binding events and landing followed by processive movement), with MAP against kinesin alone: > 60 fold
  run length of full-length KIF5B-GFP on dynamic MTs in vitro, with MAP against kinesin alone: 1.6 fold
[2]
  landing frequency of K560-GFP on MAP-decorated dynamic MTs in vitro, increasing MAP concentrations, against K560 alone: < 23.6 fold
  processivity (run length) of K560-GFP on dynamic MTs in vitro: 2 fold
